Experimental data reported in patent publication US7375080B1, “Immobilized lactoferrin (Im-LF) antimicrobial agents and uses thereof” (priority 1999, dated 2008).
Values joined by “and” are separate entries in the source; they are usually repeats but may differ in a detail not shown here. Equal values may be shown once.

What was measured:
[1] = tested on: E. coli O157:H7 strain ATCC43895; test: Microbial adhesion assay: detachment of 3H-thymidine labeled bacteria from beef tissue by wash; assay type: cell-based
[2] = tested on: E. coli serotype O157:H7 (strain ATCC43895); assay type: cell-based

B1: lactoferrin (protein, UniProt P24627 20-708, looked up)
Lactotransferrin: APRKNVRWCTISQPEWFKCRRWQWRMKKLGAPSITCVRRAFALECIRAIAEKKADAVTLDGGMVFEAGRDPYKLRPVAAEIYGTKESPQTHYYAVAVVKKGSNFQLDQLQGRKSCHTGLGRSAGWIIPMGILRPYLSWTESLEPLQGAVAKFFSASCVPCIDRQAYPNLCQLCKGEGENQCACSSREPYFGYSGAFKCLQDGAGDVAFVKETTVFENLPEKADRDQYELLCLNNSRAPVDAFKECHLAQVPSHAVVARSVDGKEDLIWKLLSKAQEKFGKNKSRSFQLFGSPPGQRDLLFKDSALGFLRIPSKVDSALYLGSRYLTTLKNLRETAEEVKARYTRVVWCAVGPEEQKKCQQWSQQSGQNVTCATASTTDDCIVLVLKGEADALNLDGGYIYTAGKCGLVPVLAENRKSSKHSSLDCVLRPTEGYLAVAVVKKANEGLTWNSLKDKKSCHTAVDRTAGWNIPMGLIVNQTGSCAFDEFFSQSCAPGADPKSRLCALCAGDDQGLDKCVPNSKEKYYGYTGAFRCLAEDVGDVAFVKNDTVWENTNGESTADWAKNLNREDFRLLCLDGTRKPVTEAQSCHLAVAPNHAVVSRSDRAAHVKQVLLHQQALFGKNGKNCPDKFCLFKSETKNLLFNDNTECLAKLGGRPTYEEYLGTEYVTAIANLKKCSTSPLLEACAFLTR
Question: Which results are given for B1?
Answer: % BACTERIAL CELLS DETACHED IN 1-MINUTE [1]: 90% and 85% and 78%; bacterial detachment [1]: effective bacterial detachment; GROWTH (%) [2]: 36%; effect on growth of the E. coli [2]: reduced the growth
